Source: the supplement of paper PMC9170038

Test system: MS2 coat protein
Assay: apparent KD of MS2 coat protein; designed switch direction (-1 OFF switch, 1 ON switch): 1; higher = weaker reporter binding
Method in brief: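 The reported apparent KD is a per-design median over clusters, from curve fits of normalised cluster fluorescence. Protein titrations used SNAP-549-labelled MS2 coat protein, doubled from 0.7 or 1.5 nM to 3 µM, in Tris-HCl pH 7.5 buffer with KCl, MgCl2, BSA, DTT, tRNA and Tween-20, with no input, 200 uM small-molecule ligand, or an oligonucleotide input. The RNA switches were transcribed on Illumina chips by stalled E. coli RNA polymerase.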

[1] = input ligand: microRNA oligo, concentration not stated
[2] = Eterna round: R95, input ligand: FMN 200 uM
[3] = Eterna round: R95, input ligand: microRNA oligo, concentration not stated
[4] = Eterna round: R95, input ligand: none

| Sequence | apparent KD of MS2 coat protein (input ligand: FMN 200 uM) | apparent KD of MS2 coat protein [1] | apparent KD of MS2 coat protein (input ligand: none) | apparent KD of MS2 coat protein [2] | apparent KD of MS2 coat protein [3] | apparent KD of MS2 coat protein [4] |
| --- | --- | --- | --- | --- | --- | --- |
| CGUCGUUUGAUAGGAUAUCGCUUUACAUGAGGAUCACCCGGGUUUACCACGCUGGUUUUUCUUUCCGAGAAGGAUUCUGAUGUU [salish99_SSNG02_r04_028] (Eterna round: R96, puzzle: Same State NG 2) | 117 nM | 20.7 nM | 29 nM |  |  |  |
| ACAUGAGAGUGAGGAUAUAUUGUACCUACAUGUGACAUGAGGAUCACCCAUGUGGUAAGUAUGACAUAGAAGGCACAGAUAUGU [Equivalance 80 - Jieux - Same State NG 2] (Eterna round: R96, puzzle: Same State NG 2) | 35.6 nM | 45.2 nM | 70.9 nM |  |  |  |
| AGUCCAGCGAAAGCUGGACAAAAGCGUGUACAUGAGGAUCACCCAUGUUCAUGUACAAGCUUUUUGCUCGUCUUAAA [JL mod - D95 - 6] (puzzle: Sensor for hsa-mir-208a) |  |  |  | 30.7 nM | 17.3 nM | 96.2 nM |
| CAGUGCUGUUGAGAGGAUAUGCGGCGACGGACAUGAGGAUCACCCAUGUUAGCGACAGCGUUGCGGCAGAAGGCUCUGCCCGCUG [Soteed Omei mod 50] (puzzle: Same State 2) |  |  |  |  | 15.3 nM |  |
| GGUAAGAAUUAAGGAUAUUGAUUACAUAUGUUUAACAUGAGGAUCACCCAUGUGGGUUGCGGUAUCGAGAAGGUAAAAUAAUAG [Mat - same State NG 2 - JL mod - D83] (Eterna round: R96, puzzle: Same State NG 2) | 145 nM | 170 nM | 170 nM |  |  |  |
| ACUAUUUAUGCAGGAUAUGAUUAACAUGAGGAUCACCCAUGUGGUGUUGUGAGUAAGGAGAGUGAUCAGAAGGGCAUUUUUUUU [JMF's solution 75] (Eterna round: R96, puzzle: Same State NG 2) | 518 nM | 297 nM | 359 nM |  |  |  |
| UUAAUAAAGUAAGGAUAUACAUGAGGAUCUCUCGUAGAAGGUACUAUACAUGAGGAUCACCCAUGUGCCGGUCCGUAGACUGGA [Mat - Same State NG 1 - JL mod - D7] (Eterna round: R96, puzzle: Same State NG 1) |  | 124 nM |  |  |  |  |
| UAAAUAAUGUAAGGAUAUACAUGAGGAAUUCUCGUAGAAGGUACAUGACAUGAGGAUCACCCAUGUAUCGCUCAGAAGAGCGUA [Mat - Same State NG 1 - JL mod - D28] (Eterna round: R96, puzzle: Same State NG 1) | 1660 nM | 39.9 nM | 298 nM |  |  |  |
| ACAUGAGGGUGAGGAUAUUGGAACUCACCUGACAUGAGGAUCACCCAUGUUCAAUGAGGAUCACCCAAGAAGGCACGUUGUGGA [Same State NG2 S3] (Eterna round: R96, puzzle: Same State NG 2) | 29.2 nM | 24 nM | 36.2 nM |  |  |  |
| AGAGAACAUGAGGAUCACCCAUGUGGGAUGGGCAUAGGAUAUAGAGGAGAGAGGGAGGAACUAGAAGGAUGAUGGA [JR_SS1_Sub079] (puzzle: Same State 1) |  |  |  | 43 nM | 103 nM | 50.3 nM |
| AUAAAACAUGAGGAUCACCCAUGUCAACAAAGUCGAGGAUAUGGGCAAAGAAAAGAAUAACCAGAAGGCGAAUAAU [salish99_ss1_r3_055] (puzzle: Same State 1) |  |  |  | 51.5 nM | 315 nM | 316 nM |
| AUUUUUAAUGCAGGAUAUGAUUAACAUGAGGAUCACCCAUGUGGUGUUGUGAGUAAGGAGAGUGAUCAGAAGGGCAUUUCUUUU [JMF's solution 82] (Eterna round: R96, puzzle: Same State NG 2) | 593 nM | 337 nM | 540 nM |  |  |  |
| UUAAUUAAUUAAUUAUACAUGAGGAUCACCCAUGUAAGUGAUCAGGAUAUCAGCUCGAAUAGAGCUGAGAAGGGAUCCAUGUAA [SSNG3/14-A1] (Eterna round: R96, puzzle: Same State NG 3) |  | 72.7 nM |  |  |  |  |
